Legend:
Experiment in all cases: spectrophotometric oxidation assay, Michaelis-Menten fit
Assay type in all cases: biochemical, Stemphylium lucomagnoense
[1] = substrate: CCn1c(=NN=c2sc3cc(S(=O)(=O)O)ccc3n2CC)sc2cc(S(=O)(=O)O)ccc21; details: 50 mM sodium acetate, pH 4.0, 30 °C, free enzyme, pH 4.0
From the text: (§1) spectrophotometric oxidation assay, Michaelis-Menten fit on SlLac2

[2] = substrate: COc1cccc(OC)c1O; details: 50 mM sodium acetate, pH 5.0, 30 °C, free enzyme, pH 5.0
From the text: as §1

[3] = substrate: COc1cc(C=NN=Cc2cc(OC)c(O)c(OC)c2)cc(OC)c1O; details: 50 mM sodium acetate, pH 6.0, 30 °C, free enzyme, pH 6.0
From the text: as §1

B1: SlLac2 (Stemphylium lucomagnoense) (protein)
chain: AVLPVELPNPAPFTPKRDGLEERQSPASCINVGHTPKTRHCWAQGFTSSTDMYTSWPNTGVIRSYNLRLENTTCNPDGAGSRVCLLINGRFLGPTIVANWGDTIRVTVRNNLQSNGTSIHWHGFRMLNKNIQDGVNGITECALAPGDFKTYQFQATEYGTTWYHSHFSHQYGDGVVGTVIVNGPATANYDEDLGVMPITDWYYNTAFQAASIAFQNGQAGLGPPVGDNILINGTAKNAAGGGAWNRVTIQAGKRYRLRLVNTAVDTNMLVNLDGHPFQVIATDFVPINPYNTTHLQIGIGQRYDVIINANQTAGNYWFRATADGLCQSRNAREGRAIFTYQGQPVADPTSTAPTVPFTACLDPVTTPKIVKNVPSSTFAAQAKNLPVAFGPVAANGNTVLWTINGTSMIIDPGKPTIKYVAENNNSFPQSYNVVKVPATSASTWTYWVIQQAVGAPPIAHPIHLHGHDSYILGAGDGQFNAATHFSQLRFTNPPRRDVSQLKGNGWLVIAYPTDNPGAWLMHCHIAFHVGMGLSVQFLERKQQIVLPATGSEWYNNCNNWAAYKAGNTDVWPQDDSGLKKRWPPLIEDGSVL
notes: full-length mature laccase (592 residues; precursor 613 with 21-residue signal peptide replaced by A. niger glucoamylase 24-residue prepropeptide, correctly cleaved off); codon-optimised synthetic gene; secreted from Aspergillus niger D15#26; no tag; N-glycosylated, about 75 kDa by SDS-PAGE
Protein B1 has a Km [1] of 20.6 ± 3.9 µM, a kcat [1] of 0.153 ± 0.0026 s⁻¹ and a kcat/Km [1] of 7420 M⁻¹ s⁻¹. The Km [2] was 24 ± 3.9 µM, the kcat [2] was 0.0059 ± 0.0003 s⁻¹ and the kcat/Km [2] was 240 M⁻¹ s⁻¹. It also gave a Km [3] of 3.5 ± 0.57 µM, a kcat [3] of 0.0074 ± 0.0002 s⁻¹ and a kcat/Km [3] of 2110 M⁻¹ s⁻¹.

From publication PMC7664933, “Enzyme Properties of a Laccase Obtained from the Transcriptome of the Marine-Derived Fungus Stemphylium lucomagnoense” (International Journal of Molecular Sciences, 2020)
